Data as given in PMC12849132.

Molecular target: T1, PhaR (Ralstonia eutropha H16 (Cupriavidus necator)) (UniProt Q0KBP6)
T1 sequence: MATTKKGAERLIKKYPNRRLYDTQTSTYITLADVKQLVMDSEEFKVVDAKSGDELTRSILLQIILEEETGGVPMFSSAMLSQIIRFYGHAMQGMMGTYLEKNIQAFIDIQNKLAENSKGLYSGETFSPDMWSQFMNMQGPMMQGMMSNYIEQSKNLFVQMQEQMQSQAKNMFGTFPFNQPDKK
Assay: EMSA
Details: EMSA: 0-250 ng PhaR, ~75 ng FAM-DNA, 5 uL master mix (1.75 uL 10x TBE, 0.25 uL 10 mg/mL herring sperm DNA, 3 uL DNA), 30 min at 37 C, 7.5% native PAGE

Sequence	binding
ATCGAATTCACGATGCACTTTTATTGTCCTGTTTTAAAGACTTTTTGGGTATATACCTAGGGATCAAATTAGAGGAAACCCTCTAGGATTCGCACTCGGATGCTGCGCTGCAGGATTGGTGGCGCTGTCAATCCGGAAGCCAAACCGAAGCGGATTCACGTTGCAATCTGTTGCGCGAATCCGTTCGATCAATCCACAG (double strand) [F2 (BS2, phaP3)]	binds more weakly
ATCGAATTCTGTATTCAGAGATCCGTTCCAAGCGTCTGGGGTGAAGTGCGCCCTACACATGTCATGCACTGCAACATTTCTGCGTAAGCACATGTAAATTTAGAGACGTACGATGCACTTTTATTGTCCTGTTTTAAAGACTTTTTGGGTATATACCTAGGGATCAAATTAGAGGAAACCCTCTAGGATTCGCACTCGGATGCT (double strand) [F1 (BS1, phaP3)]	binds
ATCGAATTCTGTATTCAGAGATCCGTTCCAAGCGTCTGGGGTGAAGTGCGCCCTACACATGTCATGCACTGCAACATTTCTGCGTAAGCACATGTAAATTTAGAGACGTACGATGCACTTTTATTGTCCTGTTTTAAAGACTTTTTGGGTATATACCTAGGGATCAAATTAGAGGAAACCCTCTAGGATTCGCACTCGGATGCTGCGCTGCAGGATTGGTGGCGCTGTCAATCCGGAAGCCAAACCGAAGCGGATTCACGTTGCAATCTGTTGCGCGAATCCGTTCGATCAATCCACAG (double strand) [F4 (BS1+BS2, phaP3)]	binds
GGCGCTGTCAATCCGGAAGCCAAACCGAAGCGGATTCACGTTGCAATCTGTTGCGCGAATCCGTTCGATCAATCCACAGGAGATTTTGCATGTCCCCTTTTATGCCCGAGCAATTTGCTGCAGTGCAAAAGTCCAGTCTGAACCAACTGTTCGCGCTGACGAACATGGCTTTTGACGGCGGA (double strand) [F3 (BS3, phaP3)]	binds more weakly
